Assay in all cases: EMSA
A general note: Mobility shift assays separate free from complexed probe on a gel.

The target in data set [1] is T1, Oct4 POU domain homodimer (UniProt P20263 131-282).
Data set [2] has as its target Oct4 POU domain;Sox2 HMG domain (mouse?;mouse?, UniProt P20263;P48432 131-282;43-111, |).
The target in a further data set is Oct4 POU domain (UniProt P20263 131-282).
Data set [3] deals with Oct4 POU domain;Sox17 HMG domain (mouse?;mouse?, UniProt P20263;Q61473 131-282;68-136, |).
Sequence of Oct4 POU domain;Sox17 HMG domain (P20263 131-282, chain 1 of 2): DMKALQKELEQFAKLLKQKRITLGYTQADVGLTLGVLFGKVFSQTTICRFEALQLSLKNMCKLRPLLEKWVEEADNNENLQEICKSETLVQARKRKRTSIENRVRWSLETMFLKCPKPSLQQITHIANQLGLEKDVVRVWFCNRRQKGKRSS
Sequence of Oct4 POU domain;Sox17 HMG domain (Q61473 68-136, chain 2 of 2): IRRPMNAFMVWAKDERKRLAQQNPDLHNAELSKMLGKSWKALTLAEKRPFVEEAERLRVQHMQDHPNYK
Data set [4] has as its target T1, Oct4 POU domain homodimer. This is another data set of the same source.

Read-outs that look alike come from different tables or passages of the source.

T1 sequence (P20263 131-282): as the sequence (P20263 131-282, chain 1 of 2) above
Sequence of Oct4 POU domain;Sox2 HMG domain (P20263 131-282, chain 1 of 2): as above
Sequence of Oct4 POU domain;Sox2 HMG domain (P48432 43-111, chain 2 of 2): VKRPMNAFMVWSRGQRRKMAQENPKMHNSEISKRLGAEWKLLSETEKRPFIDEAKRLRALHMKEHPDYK
Sequence of Oct4 POU domain (P20263 131-282): as the sequence (P20263 131-282, chain 1 of 2) above

B1: MOREA4 (dsDNA)
DNA 1: GCCGCCATGAATATTCATGCCGCCGC
DNA 2: GCGGCGGCATGAATATTCATGGCGGC
For B1, the binding result in data set [1] is on record as “binds”.

B2: MOREA4+1 (dsDNA)
DNA 1: GCCGCCATGAATAATTCATGCCGCCG
DNA 2: CGGCGGCATGAATTATTCATGGCGGC
On to B2, for which the binding result in data set [1] is recorded as “binds”.

B3: MOREC4 (dsDNA)
DNA 1: GGCCTCATGCATATGCATGCGGCGG
DNA 2: CCGCCGCATGCATATGCATGAGGCC
B3: the binding result in data set [1] is “binds”.

B4: SoxOct canonical (dsDNA)
DNA 1: GCGGCATTGTCATGCAAATCGGCGG
DNA 2: CCGCCGATTTGCATGACAATGCCGC
For B4, in data set [2], the binding result is listed as “binds”.

B5: Octamer (dsDNA)
DNA 1: GGCGGCGGATGCAAATCGGCGGCGG
DNA 2: CCGCCGCCGATTTGCATCCGCCGCC
B5: in the data set with Oct4 POU domain, the binding result is listed as “binds”.

B6: SoxOct compressed (dsDNA)
DNA 1: GGCGGCATTGTATGCAAATCGGCGG
DNA 2: CCGCCGATTTGCATACAATGCCGCC
Regarding B6, the binding result in data set [3] is listed as “binds”.

B7: PORE (dsDNA)
DNA 1: GGATCCATTTGCCTTTCAAATGTGG
DNA 2: CCACATTTGAAAGGCAAATGGATCC
For B7, in data set [4], the binding result is on record as “binds”.

(Values after PMC8233511.)
